From patent US20030186329

Assays:
[1] = target: T1, fusion of maltose binding protein, QRGRSA and the HY4 gene product of Arabidopsis thaliana, Q43125
T1 chain: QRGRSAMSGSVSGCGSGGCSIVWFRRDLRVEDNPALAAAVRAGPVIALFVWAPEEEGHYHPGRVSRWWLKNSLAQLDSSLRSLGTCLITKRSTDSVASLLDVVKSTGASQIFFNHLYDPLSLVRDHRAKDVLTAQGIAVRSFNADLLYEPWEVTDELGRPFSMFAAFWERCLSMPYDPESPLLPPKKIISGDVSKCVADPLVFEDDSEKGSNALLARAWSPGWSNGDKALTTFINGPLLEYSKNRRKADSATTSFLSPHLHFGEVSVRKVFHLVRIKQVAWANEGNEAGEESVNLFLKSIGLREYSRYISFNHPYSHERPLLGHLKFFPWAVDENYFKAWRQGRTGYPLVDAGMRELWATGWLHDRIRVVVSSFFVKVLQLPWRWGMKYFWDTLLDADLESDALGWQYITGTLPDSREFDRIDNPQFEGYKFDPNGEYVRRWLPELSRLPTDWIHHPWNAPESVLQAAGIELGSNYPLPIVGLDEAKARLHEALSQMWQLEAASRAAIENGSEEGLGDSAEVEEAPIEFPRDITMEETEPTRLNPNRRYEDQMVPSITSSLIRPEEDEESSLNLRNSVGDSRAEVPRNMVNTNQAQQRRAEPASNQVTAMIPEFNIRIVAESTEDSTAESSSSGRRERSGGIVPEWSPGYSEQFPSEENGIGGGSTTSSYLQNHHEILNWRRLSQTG

[2] = target: T2, peptide (I), native cleavage sequence from plasminogen
T2 chain: KKSPGRVVGGSVAH

[3] = target: T3, peptide (II) of Table 1, LGGSGQRGRKALE
T3 chain: LGGSGQRGRKALE

[4] = target: T4, peptide (III) of Table 1, LGGSGERARGALE
T4 chain: LGGSGERARGALE

[5] = target: T5, peptide (IV) of Table 1, LGGSGHYGRSGLE
T5 chain: LGGSGHYGRSGLE

[6] = target: T6, peptide (V) of Table 1, YGRS
T6 chain: YGRS

[7] = target: T7, peptide (VI) of Table 1, RGRK
T7 chain: RGRK

[8] = target: T8, peptide (VII) of Table 1, FRGRK
T8 chain: FRGRK

peptide GSGKS [9] = target: T9, peptide GSGKS
T9 chain: GSGKS

peptide LGGRGRSANAILE [10] = target: T10, peptide LGGRGRSANAILE
T10 chain: LGGRGRSANAILE

peptide LGGSGRKASLSLE [11] = target: T11, peptide LGGSGRKASLSLE
T11 chain: LGGSGRKASLSLE

peptide LGGSGRNAQVRLE [12] = target: T12, peptide LGGSGRNAQVRLE
T12 chain: LGGSGRNAQVRLE

peptide LGGSGRSANAILE [13] = target: T13, peptide LGGSGRSANAILE
T13 chain: LGGSGRSANAILE

peptide LGGSGRSATRDLE [14] = target: T14, peptide LGGSGRSATRDLE
T14 chain: LGGSGRSATRDLE

peptide LGGYGRSANAILE [15] = target: T15, peptide LGGYGRSANAILE
T15 chain: LGGYGRSANAILE

peptide LGQRGRSANAILE [16] = target: T16, peptide LGQRGRSANAILE
T16 chain: LGQRGRSANAILE

peptide SGKS [17] = target: T17, peptide SGKS
T17 chain: SGKS

peptide SGRSA [18] = target: T18, peptide SGRSA
T18 chain: SGRSA

peptide SGRS [19] = target: T19, peptide SGRS
T19 chain: SGRS

[20] = target: T2, peptide (I), native cleavage sequence …; assay: kinetics of peptide hydrolysis by the enzyme, HPLC, Eadie-Hofstee
[21] = target: T3, peptide (II) of Table 1, LGGSGQRGRKALE; assay: as above
[22] = target: T4, peptide (III) of Table 1, LGGSGERARGALE; assay: as above
[23] = target: T5, peptide (IV) of Table 1, LGGSGHYGRSGLE; assay: as above
peptide LGGRGRSANAILE [24] = target: T10, peptide LGGRGRSANAILE; assay: as above
peptide LGGSGRKASLSLE [25] = target: T11, peptide LGGSGRKASLSLE; assay: as above
peptide LGGSGRNAQVRLE [26] = target: T12, peptide LGGSGRNAQVRLE; assay: as above
peptide LGGSGRSANAILE [27] = target: T13, peptide LGGSGRSANAILE; assay: as above
peptide LGGSGRSATRDLE [28] = target: T14, peptide LGGSGRSATRDLE; assay: as above
peptide LGGYGRSANAILE [29] = target: T15, peptide LGGYGRSANAILE; assay: as above
peptide LGQRGRSANAILE [30] = target: T16, peptide LGQRGRSANAILE; assay: as above
[31] = target: T6, peptide (V) of Table 1, YGRS; assay: kinetics of peptide hydrolysis by the enzyme, HILIC HPLC, Eadie-Hofstee
[32] = target: T7, peptide (VI) of Table 1, RGRK; assay: as above
[33] = target: T8, peptide (VII) of Table 1, FRGRK; assay: as above
peptide GSGKS [34] = target: T9, peptide GSGKS; assay: as above
peptide SGKS [35] = target: T17, peptide SGKS; assay: as above
peptide SGRSA [36] = target: T18, peptide SGRSA; assay: as above
peptide SGRS [37] = target: T19, peptide SGRS; assay: as above

B1: tissue plasminogen activator (t-PA) (protein)
chain: SYQVICRDEKTQMIYQQHQSWLRPVLRSNRVEYCWCNSGRAQCHSVPVKSCSEPRCFNGGTCQQALYFSDFVCQCPEGFAGKCCEIDTRATCYEDQGISYRGTWSTAESGAECTNWNSSALAQKPYSGRRPDAIRLGLGNHNYCRNPDRDSKPWCYVFKAGKYSSEFCSTPACSEGNSDCYFGNGSAYRGTHSLTESGASCLPWNSMILIGKVYTAQNPSAQALGLGKHNYCRNPDGDAKPWCHVLKNRRLTWEYCDVPSCSTCGLRQYSQPQFRIKGGLFADIASHPWQAAIFAKHRRSPGERFLCGGILISSCWILSAAHCFQERFPPHHLTVILGRTYRVVPGEEEQKFEVEKYIVHKEFDDDTYDNDIALLQLKSDSSRCAQESSVVRTVCLPPADLQLPDWTECELSGYGKHEALSPFYSERLKEAHVRLYPSSRCTSQHLLNRTVTDNMLCAGDTRSGGPQANLHDACQGDSGGPLVCLNDGRMTLVGIISWGLGCGQKDVPGVYTKVTNYLDWIRDNMRP
- cleavage of fusion protein, SDS-PAGE [1]: t-PA readily cleaved the fusion protein
- kcat [2]: 0.0043 s⁻¹
- kcat/Km [2]: 0.29 M⁻¹ s⁻¹
- kcat [3]: 0.99 s⁻¹
- kcat/Km [3]: 430 M⁻¹ s⁻¹
- kcat [4]: 0.073 s⁻¹
- kcat/Km [4]: 52 M⁻¹ s⁻¹
- kcat [5]: 1.29 s⁻¹
- kcat/Km [5]: 322 M⁻¹ s⁻¹
- kcat [6]: 23.7 s⁻¹
- kcat/Km [6]: 3950 M⁻¹ s⁻¹
- kcat [7]: 15.3 s⁻¹
- kcat/Km [7]: 992 M⁻¹ s⁻¹
- fold more efficient cleavage by t-PA than by u-PA [8]: approximately 74 times more efficiently by t-PA than by u-PA
- kcat [8]: 12.2 s⁻¹
- kcat/Km [8]: 1240 M⁻¹ s⁻¹
- kcat (peptide GSGKS [9]): 0.07 s⁻¹
- kcat/Km (peptide GSGKS [9]): 1.6 M⁻¹ s⁻¹
- kcat (peptide LGGRGRSANAILE [10]): 0.85 s⁻¹
- kcat/Km (peptide LGGRGRSANAILE [10]): 350 M⁻¹ s⁻¹
- kcat (peptide LGGSGRKASLSLE [11]): 0.168 s⁻¹
- kcat/Km (peptide LGGSGRKASLSLE [11]): 33 M⁻¹ s⁻¹
- kcat (peptide LGGSGRNAQVRLE [12]): 0.255 s⁻¹
- kcat/Km (peptide LGGSGRNAQVRLE [12]): 36 M⁻¹ s⁻¹
- kcat (peptide LGGSGRSANAILE [13]): 0.305 s⁻¹
- kcat/Km (peptide LGGSGRSANAILE [13]): 75 M⁻¹ s⁻¹
- kcat (peptide LGGSGRSATRDLE [14]): 0.068 s⁻¹
- kcat/Km (peptide LGGSGRSATRDLE [14]): 45 M⁻¹ s⁻¹
- kcat (peptide LGGYGRSANAILE [15]): 3.29 s⁻¹
- kcat/Km (peptide LGGYGRSANAILE [15]): 1800 M⁻¹ s⁻¹
- kcat (peptide LGQRGRSANAILE [16]): 2.55 s⁻¹
- kcat/Km (peptide LGQRGRSANAILE [16]): 850 M⁻¹ s⁻¹
- fold decrease of catalytic efficiency against peptide (VI) SGRS (peptide SGKS [17]): by a factor of 49 for t-PA
- kcat (peptide SGKS [17]): 0.19 s⁻¹
- kcat/Km (peptide SGKS [17]): 6.8 M⁻¹ s⁻¹
- kcat (peptide SGRSA [18]): 2.4 s⁻¹
- kcat/Km (peptide SGRSA [18]): 60 M⁻¹ s⁻¹
- kcat (peptide SGRS [19]): 5 s⁻¹
- kcat/Km (peptide SGRS [19]): 330 M⁻¹ s⁻¹
- Km [20]: 15 mM
- Km [21]: 2.3 mM
- Km [22]: 1.41 mM
- Km [23]: 4.01 mM
- Km (peptide LGGRGRSANAILE [24]): 2.4 mM
- Km (peptide LGGSGRKASLSLE [25]): 5.1 mM
- Km (peptide LGGSGRNAQVRLE [26]): 7 mM
- Km (peptide LGGSGRSANAILE [27]): 4.08 mM
- Km (peptide LGGSGRSATRDLE [28]): 1.5 mM
- Km (peptide LGGYGRSANAILE [29]): 1.85 mM
- Km (peptide LGQRGRSANAILE [30]): 3 mM
- Km [31]: 6 mM
- Km [32]: 16.6 mM
- Km [33]: 9.8 mM
- Km (peptide GSGKS [34]): 44 mM
- Km (peptide SGKS [35]): 28 mM
- Km (peptide SGRSA [36]): 40 mM
- Km (peptide SGRS [37]): 15 mM
